Test results as given in patent publication US12187772 (Regeneron, dated 2025).

T1: IL10 receptor (IL10 receptor subunit alpha IL10Ra and beta subunit IL10Rb) on Ramos/STAT3-Luc and … (UniProt Q13651 22-578; Q08334 20-325, limits assumed)
T1 sequence (looked up) 1: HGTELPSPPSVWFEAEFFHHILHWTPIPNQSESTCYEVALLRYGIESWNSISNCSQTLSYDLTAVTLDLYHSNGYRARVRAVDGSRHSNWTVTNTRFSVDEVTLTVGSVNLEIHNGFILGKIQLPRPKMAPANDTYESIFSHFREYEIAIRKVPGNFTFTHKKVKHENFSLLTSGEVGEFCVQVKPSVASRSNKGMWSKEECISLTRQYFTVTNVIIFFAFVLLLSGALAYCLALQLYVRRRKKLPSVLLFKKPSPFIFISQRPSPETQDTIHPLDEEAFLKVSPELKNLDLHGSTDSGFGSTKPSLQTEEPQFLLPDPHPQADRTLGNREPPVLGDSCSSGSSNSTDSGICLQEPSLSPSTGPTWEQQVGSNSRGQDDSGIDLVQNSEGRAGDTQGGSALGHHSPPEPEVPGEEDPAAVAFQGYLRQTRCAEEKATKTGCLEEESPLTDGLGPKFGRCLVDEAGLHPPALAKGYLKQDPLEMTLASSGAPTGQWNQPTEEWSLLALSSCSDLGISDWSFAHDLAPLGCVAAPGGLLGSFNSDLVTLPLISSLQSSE
T1 sequence (looked up) 2: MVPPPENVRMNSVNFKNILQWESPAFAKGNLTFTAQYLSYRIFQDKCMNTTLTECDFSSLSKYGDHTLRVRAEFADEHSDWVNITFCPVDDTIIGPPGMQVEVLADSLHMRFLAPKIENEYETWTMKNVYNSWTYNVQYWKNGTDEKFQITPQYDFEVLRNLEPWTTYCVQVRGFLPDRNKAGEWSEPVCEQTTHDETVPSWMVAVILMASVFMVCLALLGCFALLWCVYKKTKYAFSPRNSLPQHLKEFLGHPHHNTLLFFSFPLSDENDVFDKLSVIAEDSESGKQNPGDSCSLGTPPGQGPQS

B1: IL10M5 (Fc-1XG4S-hIL10; Fc is IgG4s) (Fc fusion)
chain: ESKYGPPCPPCPAPPVAGPSVFLFPPKPKDTLMISRTPEVTCVVVDVSQEDPEVQFNWYVDGVEVHNAKTKPREEQFNSTYRVVSVLTVLHQDWLNGKEYKCKVSNKGLPSSIEKTISKAKGQPREPQVYTLPPSQEEMTKNQVSLTCLVKGFYPSDIAVEWESNGQPENNYKTTPPVLDSDGSFFLYSRLTVDKSRWQEGNVFSCSVMHEALHNHYTQKSLSLSLGKGGGGSSPGQGTQSENSCTHFPGNLPNMLRDLRDAFSRVKTFFQMKDQLDNLLLKESLLEDFKGYLGCQALSEMIQFYLEEVMPQAENQDPDIKAHVNSLGENLKTLRLRLRRCHRFLPCENKSKAVEQVKNAFNKLQEKGIYKAMSEFDIFINYIEAYMTMKIRN
B2: IL10M4 (Fc-2XG4S-hIL10; Fc is IgG4s) (Fc fusion)
chain: ESKYGPPCPPCPAPPVAGPSVFLFPPKPKDTLMISRTPEVTCVVVDVSQEDPEVQFNWYVDGVEVHNAKTKPREEQFNSTYRVVSVLTVLHQDWLNGKEYKCKVSNKGLPSSIEKTISKAKGQPREPQVYTLPPSQEEMTKNQVSLTCLVKGFYPSDIAVEWESNGQPENNYKTTPPVLDSDGSFFLYSRLTVDKSRWQEGNVFSCSVMHEALHNHYTQKSLSLSLGKGGGGSGGGGSSPGQGTQSENSCTHFPGNLPNMLRDLRDAFSRVKTFFQMKDQLDNLLLKESLLEDFKGYLGCQALSEMIQFYLEEVMPQAENQDPDIKAHVNSLGENLKTLRLRLRRCHRFLPCENKSKAVEQVKNAFNKLQEKGIYKAMSEFDIFINYIEAYMTMKIRN

Biological target: T1, IL10 receptor (IL10 receptor subunit …)
Experiment: cell-based or functional assay

| Binder | EC50 of luciferase activity, Ramos/Stat3-Luc reporter cells [pM] | EC50 of luciferase activity, TF-1/Stat3-Luc reporter cells [pM] | Fold Induction of luciferase activity, Ramos/Stat3-Luc reporter cells [fold] | Fold Induction of luciferase activity, TF-1/Stat3-Luc reporter cells [fold] |
| --- | --- | --- | --- | --- |
| B1 | 127 | 146 | 3.81 | 3.4 |
| B2 | 115 | 138 | 4.06 | 3.78 |
